# In patent EP1106701A1:
# Legend:
# [1] = biological target: standard human trypsin sample enclosed in the Kodazyme Trypsin M·EIA kit (human); test: Kodazyme Trypsin M·EIA sandwich EIA, standard human trypsin 10 ng/ml
# [2] = biological target: standard human trypsin sample enclosed in the Kodazyme Trypsin M·EIA kit (human); test: Kodazyme Trypsin M·EIA sandwich EIA, standard human trypsin 50 ng/ml
# [3] = biological target: canine anionic trypsin (canine (dog)); test: Kodazyme Trypsin M·EIA sandwich EIA, canine anionic trypsin 25 ng/ml
# [4] = biological target: canine anionic trypsin (canine (dog)); test: Kodazyme Trypsin M·EIA sandwich EIA, canine anionic trypsin 50 ng/ml
# [5] = biological target: standard human trypsin sample enclosed in the Kodazyme Trypsin M·EIA kit (human); test: Kodazyme Trypsin M·EIA sandwich EIA, standard human trypsin 100 ng/ml
# [6] = biological target: standard human trypsin sample enclosed in the Kodazyme Trypsin M·EIA kit (human); test: Kodazyme Trypsin M·EIA sandwich EIA, standard human trypsin 200 ng/ml
# [7] = biological target: standard human trypsin sample enclosed in the Kodazyme Trypsin M·EIA kit (human); test: Kodazyme Trypsin M·EIA sandwich EIA, standard human trypsin 400 ng/ml
# [8] = biological target: standard human trypsin sample enclosed in the Kodazyme Trypsin M·EIA kit (human); test: Kodazyme Trypsin M·EIA sandwich EIA, standard human trypsin 600 ng/ml
# [9] = biological target: canine cationic trypsin (canine (dog)); test: Kodazyme Trypsin M·EIA sandwich EIA, canine cationic trypsin 25 ng/ml
# [10] = biological target: canine cationic trypsin (canine (dog)); test: Kodazyme Trypsin M·EIA sandwich EIA, canine cationic trypsin 50 ng/ml
# [11] = biological target: canine anionic trypsin (canine (dog)); test: Kodazyme Trypsin M·EIA sandwich EIA, canine anionic trypsin 100 ng/ml
# [12] = biological target: canine anionic trypsin (canine (dog)); test: Kodazyme Trypsin M·EIA sandwich EIA, canine anionic trypsin 200 ng/ml
# [13] = biological target: canine anionic trypsin (canine (dog)); test: Kodazyme Trypsin M·EIA sandwich EIA, canine anionic trypsin 400 ng/ml
# [14] = biological target: canine cationic trypsin (canine (dog)); test: Kodazyme Trypsin M·EIA sandwich EIA, canine cationic trypsin 100 ng/ml
# [15] = biological target: canine cationic trypsin (canine (dog)); test: Kodazyme Trypsin M·EIA sandwich EIA, canine cationic trypsin 200 ng/ml
# [16] = biological target: canine cationic trypsin (canine (dog)); test: Kodazyme Trypsin M·EIA sandwich EIA, canine cationic trypsin 400 ng/ml
# [17] = biological target: canine anionic trypsin (canine (dog)); test: Kodazyme Trypsin M·EIA sandwich EIA, canine anionic trypsin 12.5 ng/ml
# [18] = biological target: canine anionic trypsin (canine (dog)); test: Kodazyme Trypsin M·EIA sandwich EIA, canine anionic trypsin 6.25 ng/ml
# [19] = biological target: canine cationic trypsin (canine (dog)); test: Kodazyme Trypsin M·EIA sandwich EIA, canine cationic trypsin 12.5 ng/ml
# [20] = biological target: canine cationic trypsin (canine (dog)); test: Kodazyme Trypsin M·EIA sandwich EIA, canine cationic trypsin 6.25 ng/ml
# [21] = biological target: standard human trypsin sample enclosed in the Kodazyme Trypsin M·EIA kit (human); test: Kodazyme Trypsin M·EIA sandwich EIA, standard human trypsin 10 ng/ml, duplicate
# [22] = biological target: standard human trypsin sample enclosed in the Kodazyme Trypsin M·EIA kit (human); test: Kodazyme Trypsin M·EIA sandwich EIA, standard human trypsin 50 ng/ml, duplicate
# [23] = biological target: canine anionic trypsin (canine (dog)); test: Kodazyme Trypsin M·EIA sandwich EIA, canine anionic trypsin 25 ng/ml, duplicate
# [24] = biological target: canine anionic trypsin (canine (dog)); test: Kodazyme Trypsin M·EIA sandwich EIA, canine anionic trypsin 50 ng/ml, duplicate
# [25] = biological target: standard human trypsin sample enclosed in the Kodazyme Trypsin M·EIA kit (human); test: Kodazyme Trypsin M·EIA sandwich EIA, standard human trypsin 200 ng/ml, duplicate
# [26] = biological target: standard human trypsin sample enclosed in the Kodazyme Trypsin M·EIA kit (human); test: Kodazyme Trypsin M·EIA sandwich EIA, standard human trypsin 400 ng/ml, duplicate
# [27] = biological target: canine cationic trypsin (canine (dog)); test: Kodazyme Trypsin M·EIA sandwich EIA, canine cationic trypsin 25 ng/ml, duplicate
# [28] = biological target: canine cationic trypsin (canine (dog)); test: Kodazyme Trypsin M·EIA sandwich EIA, canine cationic trypsin 50 ng/ml, duplicate
# [29] = biological target: canine anionic trypsin (canine (dog)); test: Kodazyme Trypsin M·EIA sandwich EIA, canine anionic trypsin 100 ng/ml, duplicate
# [30] = biological target: canine anionic trypsin (canine (dog)); test: Kodazyme Trypsin M·EIA sandwich EIA, canine anionic trypsin 200 ng/ml, duplicate
# [31] = biological target: canine anionic trypsin (canine (dog)); test: Kodazyme Trypsin M·EIA sandwich EIA, canine anionic trypsin 400 ng/ml, duplicate
# [32] = biological target: canine cationic trypsin (canine (dog)); test: Kodazyme Trypsin M·EIA sandwich EIA, canine cationic trypsin 100 ng/ml, duplicate
# [33] = biological target: canine cationic trypsin (canine (dog)); test: Kodazyme Trypsin M·EIA sandwich EIA, canine cationic trypsin 200 ng/ml, duplicate
# [34] = biological target: canine cationic trypsin (canine (dog)); test: Kodazyme Trypsin M·EIA sandwich EIA, canine cationic trypsin 400 ng/ml, duplicate
# [35] = biological target: canine anionic trypsin (canine (dog)); test: Kodazyme Trypsin M·EIA sandwich EIA, canine anionic trypsin 12.5 ng/ml, duplicate
# [36] = biological target: canine anionic trypsin (canine (dog)); test: Kodazyme Trypsin M·EIA sandwich EIA, canine anionic trypsin 6.25 ng/ml, duplicate
# [37] = biological target: canine cationic trypsin (canine (dog)); test: Kodazyme Trypsin M·EIA sandwich EIA, canine cationic trypsin 12.5 ng/ml, duplicate
# [38] = biological target: canine cationic trypsin (canine (dog)); test: Kodazyme Trypsin M·EIA sandwich EIA, canine cationic trypsin 6.25 ng/ml, duplicate
substance,measurement,setting,value
human trypsin MAb of Kodazyme Trypsin M·EIA (antibody),A492,[1],0.065
same,A492,[2],0.224
same,A492,[3],0.023
same,A492,[4],0.021
same,A492,[5],0.399
same,A492,[6],0.538
same,A492,[7],1.15
same,A492,[8],1.58
same,A492,[9],0.023
same,A492,[10],0.017
same,A492,[11],0.02
same,A492,[12],0.023
same,A492,[13],0.032
same,A492,[14],0.029
same,A492,[15],0.017
same,A492,[16],0.021
same,A492,[17],0.02
same,A492,[18],0.023
same,A492,[19],0.021
same,A492,[20],0.048
same,A492,[21],0.131
same,A492,[22],0.202
same,A492,[23],0.021
same,A492,[24],0.02
same,A492,[25],0.697
same,A492,[26],0.953
same,A492,[27],0.018
same,A492,[28],0.017
same,A492,[29],0.022
same,A492,[30],0.019
same,A492,[31],0.038
same,A492,[32],0.019
same,A492,[33],0.015
same,A492,[34],0.019
same,A492,[35],0.024
same,A492,[36],0.023
same,A492,[37],0.019
same,A492,[38],0.019
